According to PMC9076830, “Structure of the Arabidopsis guard cell anion channel SLAC1 suggests activation mechanism by phosphorylation” (Nature Communications, 2022):

Biological target: the molecule itself
Test: cryo-EM structure; single-particle analysis of purified AtSLAC1 S59A in 25 mM HEPES pH 7.4, 150 mM NaCl, 0.03% digitonin; final refinement with C3 symmetry; 2.7 Å

B1: Arabidopsis thaliana slow anion channel 1 (AtSLAC1) S59A mutant (natural protein, UniProt Q9LD83 1-556, looked up)
chain: MERKQSNAHSTFADINEVEDEAEQELQQQENNNNKRFSGNRGPNRGKQRPFRGFSRQVALETGFSVLNRESRERDDKKSLPRSGRSFGGFESGGIINGGDGRKTDFSMFRTKSTLSKQKSLLPSIIRERDIENSLRTEDGETKDDSINENVSAGRYFAALRGPELDEVKDNEDILLPKEEQWPFLLRFPIGCFGICLGLSSQAVLWLALAKSPATNFLHITPLINLVVWLFSLVVLVSVSFTYILKCIFYFEAVKREYFHPVRVNFFFAPWVVCMFLAISVPPMFSPNRKYLHPAIWCVFMGPYFFLELKIYGQWLSGGKRRLCKVANPSSHLSVVGNFVGAILASKVGWDEVAKFLWAVGFAHYLVVFVTLYQRLPTSEALPKELHPVYSMFIAAPSAASIAWNTIYGQFDGCSRTCFFIALFLYISLVARINFFTGFKFSVAWWSYTFPMTTASVATIKYAEAVPGYPSRALALTLSFISTAMVCVLFVSTLLHAFVWQTLFPNDLAIAITKRKLTREKKPFKRAYDLKRWTKQALAKKISAEKDFEAEEESHH
modifications: S146 and S543 identified as phosphorylated by mass spectrometry of the purified S59A mutant
notes: Slow anion channel 1 (SLAC1), Arabidopsis thaliana, full length, 556 residues; codon-optimised synthetic DNA; residues 150-517 modelled in the structure; No step that removes the tags is described; not shown: Flag, N-terminal, kept
stoichiometry N: 3
